# Measurements from patent US5912183A, “Peptide inhibitors of mitogenesis and motogenesis” (Pharmacia & Upjohn S.p.A., priority 1993, dated 1999).
# Residues, ends and D or L forms follow the SMILES beside them.
# Tests used:
# [1] = molecular target: T1, binding of p85 to HGF/SF receptor (Bos taurus, UniProt P23727); assay: Competition of phosphopeptides with p85 for association with immobilized recombinant HGF/SF receptor (in vitro kinase assay readout); set-up: species or system human; conditions: phosphopeptide 10 μM; p85 from Sf9 lysates; FIG. 1
# T1 construct: made in house; host or cells: Sf9 insect cells (baculovirus), for both p85 and the receptor
# T1 sequence (P23727 whole entry): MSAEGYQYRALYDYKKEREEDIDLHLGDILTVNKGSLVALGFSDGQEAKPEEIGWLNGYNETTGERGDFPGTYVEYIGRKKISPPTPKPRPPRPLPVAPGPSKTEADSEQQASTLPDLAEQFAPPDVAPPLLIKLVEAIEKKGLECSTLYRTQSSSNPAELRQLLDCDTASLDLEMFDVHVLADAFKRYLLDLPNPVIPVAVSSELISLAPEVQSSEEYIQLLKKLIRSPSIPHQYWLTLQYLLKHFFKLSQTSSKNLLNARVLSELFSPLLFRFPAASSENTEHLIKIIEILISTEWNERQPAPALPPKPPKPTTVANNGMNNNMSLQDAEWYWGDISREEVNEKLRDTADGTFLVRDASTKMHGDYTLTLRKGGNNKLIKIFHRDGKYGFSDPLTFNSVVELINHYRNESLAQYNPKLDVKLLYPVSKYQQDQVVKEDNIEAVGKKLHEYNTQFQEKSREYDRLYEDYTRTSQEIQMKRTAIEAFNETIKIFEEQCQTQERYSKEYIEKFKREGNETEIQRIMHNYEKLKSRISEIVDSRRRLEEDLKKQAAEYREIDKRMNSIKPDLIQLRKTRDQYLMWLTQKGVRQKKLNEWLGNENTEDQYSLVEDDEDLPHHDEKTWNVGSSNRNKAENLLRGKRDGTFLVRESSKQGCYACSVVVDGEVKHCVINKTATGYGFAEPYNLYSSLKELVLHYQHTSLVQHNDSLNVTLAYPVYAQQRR
# Description: FIG. 1. Inhibition of binding of p85 to HGF/SF receptor by tyrosine-phosphorylated peptides. Recombinant HGF/SF receptor was purified by immunoprecipitation from baculovirus-infected Sf9 cells using a rabbit polyclonal antiserum and phosphorylated with cold ATP. Lysates of Sf9 cells expressing p85 were pre-incubated with each of the phosphopeptides (10 μM). The lysates were then allowed to associate with immobilized recombinant HGF/SF receptors. Following association the complex was washed and receptor-bound p85 was detected by an in vitro kinase assay, as described in Materials and Methods of Example 4. The phosphopeptides are identified by the number of the amino terminal tyrosine.
# FIG. 2. Inhibition of binding of p85 to HGF/SF receptor with different concentrations of tyrosine-phosphorylated peptides. The phosphopeptides which efficiently out-competed p85 binding to the HGF/SF receptor (FIG. 1) were used at increasing concentrations (10 nM, 100 nM, 1 μM from left to right) to define their relative affinities for p85. Conditions of the experiment were as in FIG. 1. Phosphopeptide 1365 was used as a negative control for p85 interaction.
# In vitro association experiments. Sf9 cells expressing the recombinant HGF/SF receptor (approximately 4×10^6 cells/point) were lysed 36 hours after infection in buffer A (10 mM Tris-HCl buffer pH 7.5, 10% glycerol, 1% Triton X-100, 150 mM NaCl, 5 mM EDTA), supplemented with 0.2 mM phenyl-methylsulfonyl fluoride, 1 μg/ml leupeptin, 0.1 TIU/ml aprotinin and 1 μg/ml pepstatin. Lysates were clarified at 15,000×g at 4° C. for 15 minutes and the supernatants immunoprecipitated after 2 hours incubation with anti-Met antibodies coupled to Protein A-Sepharose. Immunocomplexes were washed three times with buffer A, once with buffer B (10 mM Tris-HCl pH 7.4, 100 mM NaCl, 1 mM EDTA) and once with buffer C (25 mM 4-(2-hydroxyethyl)-1-piperazine-ethanesulfonic acid (HEPES) buffer pH 7.2, 100 mM NaCl, 5 mM MgCl2). Samples were pre-phosphorylated by incubation for 15 minutes at 25° C. in buffer C with 10 μM unlabelled ATP and then washed three times with cold buffer A supplemented with 1 mM sodium ortho-vanadate. Association between the immobilized receptor and the baculovirus-expressed p85 was carried out as previously described (Bardelli, A., et al., Oncogene 7: 1973-1978 (1992)). For the association experiments with the PI 3-kinase holoenzyme three days serum-starved A549 cells (approx. 2×10^6 cells/point) were used as a source of PI 3-kinase. A549 cells were Dounce-homogenized in MOPS buffer (20 mM 3-(N-morpholino)propanesulfonic acid) (pH 7.5), 1 mM MgCl2, 0.1 mM EDTA, 200 mM sucrose, 1 mM sodium ortho-vanadate), supplemented with 0.2 mM phenylmethylsulfonyl fluoride, 1 μg/ml leupeptin, 0.1 TIU/ml aprotinin and 1 μg/ml pepstatin. Homogenates were centrifuged at 100,000×g for 20 minutes at 4° C. When checking for the ability of phosphopeptides to block the association with the receptor, cell lysates were pre-incubated with the phosphopeptides for 1 hour at 4° C. prior to incubation with the immobilized recombinant HGF/SF receptor. Following association, immunocomplexes were washed three times with buffer A, twice with buffer D (0.5M LiCl, 100 mM Tris-HCl pH 7.6), and twice with buffer B.
# The presence of the p85 subunit of the PI 3-kinase in the receptor immunoprecipitate was determined by: i) labelling of the receptor and associated proteins with [γ-^32 P]ATP by in vitro kinase assay; ii) Western immunoblotting; iii) PI 3-kinase activity assay.
# In vitro kinase assay. Receptor-associated proteins were labelled in 20 μl of buffer C, in the presence of 10 μCi [γ-^32 P]ATP (specific activity 7,000 Ci/Mm; Amersham) at 25° C. for 15 minutes. The reaction was stopped by adding 1 ml of ice-cold Buffer A without protease inhibitors. Samples were washed three times with cold buffer A. The labelled immunocomplexes were eluted from Protein A-Sepharose in boiling Laemmli buffer. […]
# GST-SH2 domain of Shc = molecular target: T2, GST-SH2 domain of Shc (Homo sapiens, UniProt P29353); assay: BIAcore binding of Shc SH2 domain to immobilised phosphopeptides; conditions: biosensor; for Affinity constant, ratio between dissociation rate (Kdiss) and association rate constants (Kass): Shc GST-SH2; for Binding of Shc SH2 domain to immobilised phosphopeptide: avidin-immobilized biotinylated phosphopeptide
# T2 construct: using the Shc SH2 domain, expressed in bacteria as a GST-fusion protein; made in house; host or cells: bacteria
# T2 sequence (P29353 488-579 limits assumed): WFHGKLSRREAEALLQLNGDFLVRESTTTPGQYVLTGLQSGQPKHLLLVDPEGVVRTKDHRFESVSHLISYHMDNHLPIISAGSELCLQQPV
# Description: FIG. 13. […] The same concentration of Shc-SH2 was injected over two biosensor surfaces on which two phosphopeptides had been immobilised. Y1356P is derived from the sequence VNATY^1356 VNVK (SEQ. ID NO: 28) of the receptor tail; Y317P is derived from the sequence DDPSY^317 VNVQ (SEQ. ID NO: 27). Note that both peptides contain the same core (YVNV) but (SEQ. ID NO: 3) different upstream sequences. The initial rapid increase in the response is due to the "bulk effect" of the injected solution.
# In vitro binding studies using GST-fusion protein. The region of the Grb2 cDNA corresponding to its SH2 domain (from nucleotide position 256 to nucleotide position 551) was isolated using polymerase chain reaction (PCR) and cloned into the BamHI-EcoRI sites of the bacterial expression plasmid pGEX-2T (GST-Grb2). Cultures of bacteria expressing GST, GST-Grb2 or GST-Shc (Segatto et al., Oncogene 2105-2112 (1993)) were grown for 3-4 hours at 37° C. in LB medium containing 1 mM IPTG. Bacteria were centrifuged, resuspended in 1/100 volume of ice-cold PY buffer, without Triton™ and lysed by sonication. After adding Triton X-100 to 1%, lysates were clarified by centrifugation. Recombinant proteins were purified onto glutathione Sepharose™ (Pharmacia) and used as such for binding assays. For each reaction, about 5 μg of GST, GST-Grb2 or GST-Shc bound to glutathione Seharose was incubated for 2 hrs. at 4° C. with […] of appropriate cell lysate made in PY buffer. Protein complexes were washed 5 times in ice cold PY buffer, eluted and denatured by heating at 95° C. for 3 min in Laemmli buffer, resolved on SDS-PAGE and analyzed by immunoblot.
# The basic principles of operation as well as the methodology for obtaining kinetic measurements of SH2 domain interactions using the BIAcore instrument (Pharmacia) have been previously described in detail (Panayotou et al., Mol. Cell. Biol. 13: 3567-3576 (1993), Ponzetto et al., Mol. Cell. Biol. 13: 4600-4608 (1993)). Purified GST-SH2 domains or intact proteins were desalted in BIAcore running buffer (20 mM Hepes, pH 7.4, 150 mM NaCl, 3.4 mM EDTA, 0.005% Tween 20 and 4 mM DTT) and injected over avidin-immobilized, biotinylated phosphopeptides. The amount of phosphopeptides immobilized was normalized by measuring the binding of anti-phosphotyrosine antibodies. Association was measured over a range of protein concentrations and dissociation of bound material was allowed to occur either in buffer flow or upon injection of 20 μM competing, non-biotinylated phosphopetide. Peptide and protein concentrations were calculated by amino acid analysis on an Applied Biosystem amino acid analyzer.
# The direct interaction between the SH2 domain of Shc and phosphotyrosine Y^1349 or Y^1356 was confirmed by real-time Biosensor analysis (Panayotou et al., ibid; Felder et al., Mol. Cell. Biol. 13: 1449-1455 (1993)).
# The Shc sequence Y^317 VNV (SEQ. ID NO: 3) is identical to one of the two Shc binding sites present in the SF/HGF receptor (FIG. 8). […] The biosensor was used to compare binding of the Shc SH2 domain to the phosphopeptide DDPSY^317 VNVQ (SEQ. ID NO: 27), present on the Shc molecule, and to the phosphopeptide VNATY^1356 VNVK (SEQ. ID NO: 28), present on the SF/HGF receptor. […] Thus Shc-Shc association is not favoured in vivo, and the Shc phosphotyrosine residue Y^317 is available to bind other molecules, rather than to mediate the formation of concatamers.
Molecule,Inhibition of binding of p85 to HGF/SF receptor [1],"Affinity constant, ratio between dissociation rate (Kdiss) and association rate constants (Kass) (GST-SH2 domain of Shc)",Binding of Shc SH2 domain to immobilised phosphopeptide (GST-SH2 domain of Shc),Binding of Shc SH2 domain to immobilised phosphopeptide (GST-SH2 domain of Shc; listed as Y1356P)
CC(C)C[C@H](NC(=O)[C@@H]1CCCN1C(=O)[C@H](CC(=O)O)NC(=O)[C@@H]1CCCN1C(=O)[C@H](CS)NC(=O)[C@@H](N)Cc1ccc(OP(=O)(O)O)cc1)C(=O)N[C@@H](Cc1ccc(O)cc1)C(=O)N[C@@H](CCC(=O)O)C(=O)O [H-Tyr*-Cys-Pro-Asp-Pro-Leu-Tyr-Glu-OH] (HELM PEPTIDE1{[N[C@@H](Cc1ccc(OP(=O)(O)O)cc1)C(=O)[*:2]].C.P.D.P.L.Y.E}$$$$V2.0),only partially effective,–,–,–
"H-Ile-Gly-Glu-His-Tyr*-Val-His-Val-Asn-OH (H-IGEHYVHVN-OH; not fully specified (residue 5); also: Tyr5 (Y*) may be phosphorylated or unphosphorylated, not settled) [IGEHY^1349* VHVN]",–,too high to be exactly determined,–,–
"H-Val-Asn-Ala-Thr-Tyr*-Val-Asn-Val-Lys-OH (H-VNATYVNVK-OH; not fully specified (residue 5); also: Tyr5 (Y*) may be phosphorylated or unphosphorylated, not settled) [VNATY^1356* VNVK]",–,too high to be exactly determined,specifically bound,binds to the docking site of the SF/HGF receptor
